How the values were obtained:
R6.5 mAb = assay: Indirect immunofluorescence flow cytofluorometry: mAb R6.5 binding to COS cells expressing ICAM-1 mutants (SLFI, % CL203); assay type: cell-based; conditions: SLFI normalized to CL203 SLFI of the mutant
Outline: (§1)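 Transfected COS cells expressing ICAM-1 point mutants were stained by indirect immunofluorescence and analysed by flow cytometry. Specific linear fluorescence intensity of CL203 is expressed relative to wild-type CL203; RR1/1, R6.5 and LB-2 SLFI are expressed relative to CL203 SLFI of the same mutant.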

HRV14 = assay: Binding of [^35S]-Met labeled HRV14 to COS cells expressing ICAM-1 mutants; assay type: cell-based, human rhinovirus 14; conditions: 35S met-labeled HRV14 binding to COS cells expressing ICAM-1 mutant; normalized for percent of cells expressing mutant and for wild type binding; mean
RR1/1 mAb = assay: Indirect immunofluorescence flow cytofluorometry: mAb RR1/1 binding to COS cells expressing ICAM-1 mutants (SLFI, % CL203); assay type: cell-based; conditions: SLFI normalized to CL203 SLFI of the mutant
Outline: as §1

CL203 mAb = assay: Indirect immunofluorescence flow cytofluorometry: mAb CL203 binding to COS cells expressing ICAM-1 mutants (SLFI, % WT); assay type: cell-based; conditions: SLFI of CL203 for mutant normalized to wild type CL203 SLFI; level of expression
Outline: as §1

LFA-1 = target: T1, LFA-1 (Homo sapiens, UniProt P05107+P20701); assay: Adherence of COS cells expressing ICAM-1 or ICAM-1 mutants to plastic-bound purified LFA-1; assay type: cell-based; conditions: COS cells expressing ICAM-1 mutant adhering to LFA-1 coated plastic; normalized for percent of cells expressing mutant and for wild type binding; mean
T1 construct: endogenous in cells
T1 sequence (P20701 26-1170): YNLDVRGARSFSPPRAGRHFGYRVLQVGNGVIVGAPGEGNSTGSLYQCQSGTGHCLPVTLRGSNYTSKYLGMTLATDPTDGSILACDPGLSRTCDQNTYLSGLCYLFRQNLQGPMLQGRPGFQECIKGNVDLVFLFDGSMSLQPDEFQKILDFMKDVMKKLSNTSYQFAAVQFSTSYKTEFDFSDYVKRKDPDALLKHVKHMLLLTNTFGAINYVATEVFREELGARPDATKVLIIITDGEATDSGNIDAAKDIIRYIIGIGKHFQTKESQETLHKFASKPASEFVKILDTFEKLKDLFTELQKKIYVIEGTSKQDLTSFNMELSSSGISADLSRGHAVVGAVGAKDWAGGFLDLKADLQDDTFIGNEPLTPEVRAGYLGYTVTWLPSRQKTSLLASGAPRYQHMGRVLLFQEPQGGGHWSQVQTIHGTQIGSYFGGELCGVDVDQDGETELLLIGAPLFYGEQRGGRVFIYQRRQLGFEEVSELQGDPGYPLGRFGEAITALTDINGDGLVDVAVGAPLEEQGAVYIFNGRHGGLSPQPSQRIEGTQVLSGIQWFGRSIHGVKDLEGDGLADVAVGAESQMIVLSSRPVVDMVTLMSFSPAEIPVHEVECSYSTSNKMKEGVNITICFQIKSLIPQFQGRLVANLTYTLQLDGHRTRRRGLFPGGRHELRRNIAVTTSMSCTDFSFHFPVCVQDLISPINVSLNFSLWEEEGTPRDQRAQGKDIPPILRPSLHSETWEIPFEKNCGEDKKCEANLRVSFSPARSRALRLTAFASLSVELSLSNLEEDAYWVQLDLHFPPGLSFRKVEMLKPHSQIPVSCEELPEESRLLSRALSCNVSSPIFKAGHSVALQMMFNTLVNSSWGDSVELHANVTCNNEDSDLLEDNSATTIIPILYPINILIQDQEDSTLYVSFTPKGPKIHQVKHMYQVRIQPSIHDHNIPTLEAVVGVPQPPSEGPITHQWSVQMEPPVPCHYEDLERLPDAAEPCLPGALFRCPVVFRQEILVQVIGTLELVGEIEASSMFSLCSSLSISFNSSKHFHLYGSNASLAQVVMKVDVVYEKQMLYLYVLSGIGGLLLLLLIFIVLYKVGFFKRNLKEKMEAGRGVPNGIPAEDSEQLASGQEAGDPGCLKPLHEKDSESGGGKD
T1 sequence (P05107 23-769): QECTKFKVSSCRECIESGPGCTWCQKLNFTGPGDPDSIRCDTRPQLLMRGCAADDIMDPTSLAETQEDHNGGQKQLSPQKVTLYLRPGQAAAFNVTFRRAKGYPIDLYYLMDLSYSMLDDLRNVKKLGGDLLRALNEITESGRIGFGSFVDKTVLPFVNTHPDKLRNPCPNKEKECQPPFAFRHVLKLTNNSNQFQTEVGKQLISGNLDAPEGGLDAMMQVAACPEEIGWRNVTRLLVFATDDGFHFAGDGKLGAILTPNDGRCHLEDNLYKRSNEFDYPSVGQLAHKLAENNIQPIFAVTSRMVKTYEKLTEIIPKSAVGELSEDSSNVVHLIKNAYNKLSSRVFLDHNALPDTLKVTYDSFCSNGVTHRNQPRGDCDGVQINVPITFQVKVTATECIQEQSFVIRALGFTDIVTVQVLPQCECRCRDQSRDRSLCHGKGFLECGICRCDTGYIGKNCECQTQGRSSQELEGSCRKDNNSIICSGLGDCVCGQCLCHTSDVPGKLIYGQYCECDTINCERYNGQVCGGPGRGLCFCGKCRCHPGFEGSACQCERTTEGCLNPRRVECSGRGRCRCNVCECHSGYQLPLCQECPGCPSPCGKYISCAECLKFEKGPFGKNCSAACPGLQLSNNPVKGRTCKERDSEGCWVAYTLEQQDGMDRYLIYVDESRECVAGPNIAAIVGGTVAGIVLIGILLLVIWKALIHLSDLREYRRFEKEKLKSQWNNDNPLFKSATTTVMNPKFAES

LB-2 mAb = assay: Indirect immunofluorescence flow cytofluorometry: mAb LB-2 binding to COS cells expressing ICAM-1 mutants (SLFI, % CL203); assay type: cell-based; conditions: SLFI normalized to CL203 SLFI of the mutant
Outline: as §1

Molecule | SLFI (% CL203) R6.5 (R6.5 mAb) | HRV Binding % (HRV14) | SLFI (% CL203) RR/1 (RR1/1 mAb) | Cl203 % WT (SLFI) (CL203 mAb) | LFA-1 Binding % (LFA-1) | SLFI (% CL203) LB-2 (LB-2 mAb)
D71GQS/NGEL (protein, UniProt P05362 28-532, looked up, variant D71N Q73E S74L) Intercellular adhesion …: QTSVSPSKVILPRGGSVLVTCSTSCDQPKLLGIETPLPKKELLLPGNNRKVYELSNVQEDSQPMCYSNCPNGELTAKTFLTVYWTPERVELAPLPSWQPVGKNLTLRCQVEGGAPRANLTVVLLRGEKELKREPAVGEPAEVTTTVLVRRDHHGANFSCRTELDLRPQGLELFENTSAPYQLQTFVLPATPPQLVSPRVLEVDTQGTVVCSLDGLFPVSEAQVHLALGDQRLNPTVTYGNDSFSAKASVSVTAEDEGTQRLTCAVILGNQSQETLQTVTIYSFPAPNVILTKPEVSEGTEVTVKCEAHPRAKVTLNGVPAQPLGPRAQLLLKATPEDNGRSFSCSATLEVAGQLIHKNQTRELRVLYGPRLDERDCPGNWTWPENSQQTPMCQAWGNPLPELKCLKDGTFPLPIGESVTVTRDLEGTYLCRARSTQGEVTRKVTVNVLSPRYEIVIITVVAAAVIMGTAGLSTYLYNRQRKIKKYRLQQAQKGTPMKPNTQATPP | 48 % CL203 | 21% | 0 % CL203 | 161 % WT | 1% | 26 % CL203
V136GE/GVK (protein, UniProt P05362 28-532, looked up, variant V136G G137V E138K) Intercellular adhesion …: QTSVSPSKVILPRGGSVLVTCSTSCDQPKLLGIETPLPKKELLLPGNNRKVYELSNVQEDSQPMCYSNCPDGQSTAKTFLTVYWTPERVELAPLPSWQPVGKNLTLRCQVEGGAPRANLTVVLLRGEKELKREPAGVKPAEVTTTVLVRRDHHGANFSCRTELDLRPQGLELFENTSAPYQLQTFVLPATPPQLVSPRVLEVDTQGTVVCSLDGLFPVSEAQVHLALGDQRLNPTVTYGNDSFSAKASVSVTAEDEGTQRLTCAVILGNQSQETLQTVTIYSFPAPNVILTKPEVSEGTEVTVKCEAHPRAKVTLNGVPAQPLGPRAQLLLKATPEDNGRSFSCSATLEVAGQLIHKNQTRELRVLYGPRLDERDCPGNWTWPENSQQTPMCQAWGNPLPELKCLKDGTFPLPIGESVTVTRDLEGTYLCRARSTQGEVTRKVTVNVLSPRYEIVIITVVAAAVIMGTAGLSTYLYNRQRKIKKYRLQQAQKGTPMKPNTQATPP | 172 % CL203 | 117% | 220 % CL203 | 171 % WT | 92% | 138 % CL203
H152HGA/EEGS (protein, UniProt P05362 28-532, looked up, variant H152E H153E A155S) Intercellular adhesion …: QTSVSPSKVILPRGGSVLVTCSTSCDQPKLLGIETPLPKKELLLPGNNRKVYELSNVQEDSQPMCYSNCPDGQSTAKTFLTVYWTPERVELAPLPSWQPVGKNLTLRCQVEGGAPRANLTVVLLRGEKELKREPAVGEPAEVTTTVLVRRDEEGSNFSCRTELDLRPQGLELFENTSAPYQLQTFVLPATPPQLVSPRVLEVDTQGTVVCSLDGLFPVSEAQVHLALGDQRLNPTVTYGNDSFSAKASVSVTAEDEGTQRLTCAVILGNQSQETLQTVTIYSFPAPNVILTKPEVSEGTEVTVKCEAHPRAKVTLNGVPAQPLGPRAQLLLKATPEDNGRSFSCSATLEVAGQLIHKNQTRELRVLYGPRLDERDCPGNWTWPENSQQTPMCQAWGNPLPELKCLKDGTFPLPIGESVTVTRDLEGTYLCRARSTQGEVTRKVTVNVLSPRYEIVIITVVAAAVIMGTAGLSTYLYNRQRKIKKYRLQQAQKGTPMKPNTQATPP | 94 % CL203 | 82% | 103 % CL203 | 94 % WT | 85% | 112 % CL203
R166PQ/EPA (protein, UniProt P05362 28-532, looked up, variant R166E Q168A) Intercellular adhesion …: QTSVSPSKVILPRGGSVLVTCSTSCDQPKLLGIETPLPKKELLLPGNNRKVYELSNVQEDSQPMCYSNCPDGQSTAKTFLTVYWTPERVELAPLPSWQPVGKNLTLRCQVEGGAPRANLTVVLLRGEKELKREPAVGEPAEVTTTVLVRRDHHGANFSCRTELDLEPAGLELFENTSAPYQLQTFVLPATPPQLVSPRVLEVDTQGTVVCSLDGLFPVSEAQVHLALGDQRLNPTVTYGNDSFSAKASVSVTAEDEGTQRLTCAVILGNQSQETLQTVTIYSFPAPNVILTKPEVSEGTEVTVKCEAHPRAKVTLNGVPAQPLGPRAQLLLKATPEDNGRSFSCSATLEVAGQLIHKNQTRELRVLYGPRLDERDCPGNWTWPENSQQTPMCQAWGNPLPELKCLKDGTFPLPIGESVTVTRDLEGTYLCRARSTQGEVTRKVTVNVLSPRYEIVIITVVAAAVIMGTAGLSTYLYNRQRKIKKYRLQQAQKGTPMKPNTQATPP | 109 % CL203 | 25% | 100 % CL203 | 94 % WT | 75% | 64 % CL203
D203TQ/TAD (protein, UniProt P05362 28-532, looked up, variant D203T T204A Q205D) Intercellular adhesion …: QTSVSPSKVILPRGGSVLVTCSTSCDQPKLLGIETPLPKKELLLPGNNRKVYELSNVQEDSQPMCYSNCPDGQSTAKTFLTVYWTPERVELAPLPSWQPVGKNLTLRCQVEGGAPRANLTVVLLRGEKELKREPAVGEPAEVTTTVLVRRDHHGANFSCRTELDLRPQGLELFENTSAPYQLQTFVLPATPPQLVSPRVLEVTADGTVVCSLDGLFPVSEAQVHLALGDQRLNPTVTYGNDSFSAKASVSVTAEDEGTQRLTCAVILGNQSQETLQTVTIYSFPAPNVILTKPEVSEGTEVTVKCEAHPRAKVTLNGVPAQPLGPRAQLLLKATPEDNGRSFSCSATLEVAGQLIHKNQTRELRVLYGPRLDERDCPGNWTWPENSQQTPMCQAWGNPLPELKCLKDGTFPLPIGESVTVTRDLEGTYLCRARSTQGEVTRKVTVNVLSPRYEIVIITVVAAAVIMGTAGLSTYLYNRQRKIKKYRLQQAQKGTPMKPNTQATPP | 116 % CL203 | 111% | 178 % CL203 | 125 % WT | 91% | 86 % CL203
E111GGA/KAGS (protein, UniProt P05362 28-532, looked up, variant E111K G112A A114S) Intercellular adhesion …: QTSVSPSKVILPRGGSVLVTCSTSCDQPKLLGIETPLPKKELLLPGNNRKVYELSNVQEDSQPMCYSNCPDGQSTAKTFLTVYWTPERVELAPLPSWQPVGKNLTLRCQVKAGSPRANLTVVLLRGEKELKREPAVGEPAEVTTTVLVRRDHHGANFSCRTELDLRPQGLELFENTSAPYQLQTFVLPATPPQLVSPRVLEVDTQGTVVCSLDGLFPVSEAQVHLALGDQRLNPTVTYGNDSFSAKASVSVTAEDEGTQRLTCAVILGNQSQETLQTVTIYSFPAPNVILTKPEVSEGTEVTVKCEAHPRAKVTLNGVPAQPLGPRAQLLLKATPEDNGRSFSCSATLEVAGQLIHKNQTRELRVLYGPRLDERDCPGNWTWPENSQQTPMCQAWGNPLPELKCLKDGTFPLPIGESVTVTRDLEGTYLCRARSTQGEVTRKVTVNVLSPRYEIVIITVVAAAVIMGTAGLSTYLYNRQRKIKKYRLQQAQKGTPMKPNTQATPP | 0 % CL203 | 162% | 81 % CL203 | 122 % WT | 103% | 89 % CL203
R149RD/EEG (protein, UniProt P05362 28-532, looked up, variant R149E R150E D151G) Intercellular adhesion …: QTSVSPSKVILPRGGSVLVTCSTSCDQPKLLGIETPLPKKELLLPGNNRKVYELSNVQEDSQPMCYSNCPDGQSTAKTFLTVYWTPERVELAPLPSWQPVGKNLTLRCQVEGGAPRANLTVVLLRGEKELKREPAVGEPAEVTTTVLVEEGHHGANFSCRTELDLRPQGLELFENTSAPYQLQTFVLPATPPQLVSPRVLEVDTQGTVVCSLDGLFPVSEAQVHLALGDQRLNPTVTYGNDSFSAKASVSVTAEDEGTQRLTCAVILGNQSQETLQTVTIYSFPAPNVILTKPEVSEGTEVTVKCEAHPRAKVTLNGVPAQPLGPRAQLLLKATPEDNGRSFSCSATLEVAGQLIHKNQTRELRVLYGPRLDERDCPGNWTWPENSQQTPMCQAWGNPLPELKCLKDGTFPLPIGESVTVTRDLEGTYLCRARSTQGEVTRKVTVNVLSPRYEIVIITVVAAAVIMGTAGLSTYLYNRQRKIKKYRLQQAQKGTPMKPNTQATPP | 189 % CL203 | 139% | 166 % CL203 | 159 % WT | 81% | 166 % CL203
N175TSA/QTLG (protein, UniProt P05362 28-532, looked up, variant N175Q S177L A178G) Intercellular adhesion …: QTSVSPSKVILPRGGSVLVTCSTSCDQPKLLGIETPLPKKELLLPGNNRKVYELSNVQEDSQPMCYSNCPDGQSTAKTFLTVYWTPERVELAPLPSWQPVGKNLTLRCQVEGGAPRANLTVVLLRGEKELKREPAVGEPAEVTTTVLVRRDHHGANFSCRTELDLRPQGLELFEQTLGPYQLQTFVLPATPPQLVSPRVLEVDTQGTVVCSLDGLFPVSEAQVHLALGDQRLNPTVTYGNDSFSAKASVSVTAEDEGTQRLTCAVILGNQSQETLQTVTIYSFPAPNVILTKPEVSEGTEVTVKCEAHPRAKVTLNGVPAQPLGPRAQLLLKATPEDNGRSFSCSATLEVAGQLIHKNQTRELRVLYGPRLDERDCPGNWTWPENSQQTPMCQAWGNPLPELKCLKDGTFPLPIGESVTVTRDLEGTYLCRARSTQGEVTRKVTVNVLSPRYEIVIITVVAAAVIMGTAGLSTYLYNRQRKIKKYRLQQAQKGTPMKPNTQATPP | 50 % CL203 | 40% | 19 % CL203 | 75 % WT | 26% | 44 % CL203

— patent US7354588B1, “Functional derivatives of ICAM-1 with altered ability to bind LFA-1 or HRV” (Dana Farber Cancer Institute, priority 1987, dated 2008)
